The values that follow come from patent publication US20170305994A1.

Experiment [1] addresses human DR3 with the death domain deleted (ΔM339-P417 of SEQ ID NO:1), expressed on CHOK1SV cells (human) (UniProt Q93038). Briefly: flow cytometry competition: Fab vs TL1A on hDR3-expressing CHO cells (isotype control; IC50 cell: No inhib). For orientation: A flow cytometer gives signals particle by particle.
The target in experiment [2] is T1, human DR3 (full length, on cells) (human) (UniProt Q93038).
T1 sequence: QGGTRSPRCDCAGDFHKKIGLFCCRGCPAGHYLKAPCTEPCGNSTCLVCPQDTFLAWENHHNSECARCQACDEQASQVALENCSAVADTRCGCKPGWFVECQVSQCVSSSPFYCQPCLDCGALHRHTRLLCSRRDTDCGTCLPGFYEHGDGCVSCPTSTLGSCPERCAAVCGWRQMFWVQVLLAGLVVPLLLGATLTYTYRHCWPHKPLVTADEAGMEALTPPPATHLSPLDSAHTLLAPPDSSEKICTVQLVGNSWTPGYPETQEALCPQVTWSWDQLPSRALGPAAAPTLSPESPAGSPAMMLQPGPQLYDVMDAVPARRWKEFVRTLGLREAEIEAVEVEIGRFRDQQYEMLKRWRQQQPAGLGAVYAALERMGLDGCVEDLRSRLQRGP
The experiment can be described thus: cell-based or functional assay.

For experiment [3], the target named is T1, human DR3 (full length, on cells) (human). Briefly: flow cytometry on CD3/CD28-stimulated human CD4+ T cells (isotype control).
In experiment [4] the target is TL1A (R&D Systems) (UniProt O95150). The experiment can be described thus: cell-based or functional assay.
For experiment [5] the target is unchanged. The experiment can be described thus: cell-based or functional assay. This is another data set of the same source.

Several values for one entry are separate records, joined by “and”; a condition that tells them apart may be missing. Equal values may be shown once. Read-outs that look alike come from different tables or passages of the source.

Sequence of TL1A (R&D Systems) (O95150 72-251 limits assumed): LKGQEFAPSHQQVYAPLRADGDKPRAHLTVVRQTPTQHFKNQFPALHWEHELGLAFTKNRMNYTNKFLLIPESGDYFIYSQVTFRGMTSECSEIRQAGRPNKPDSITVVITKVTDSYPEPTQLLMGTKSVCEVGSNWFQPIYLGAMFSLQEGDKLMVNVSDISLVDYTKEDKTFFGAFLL

On to 0158 (Hz-aTNP isotype control Fab), for which, in experiment [1], the max percentage inhibition was 10%. Also, in experiment [2], the max % inhibition of TNFalpha, average (n 8) is -1.8%; the max % inhibition of TNFalpha, donor 1 was 1.24%; the max % inhibition of TNFalpha, donor 2 came out at 0.75%.

In experiment [3], IgG1 isotype (antibody) came in with a Median Fluorescent Intensity of 222 and a Staining index (MFI Ab/MFI Isotype) of 1.

For “MAB7441 (R&D Systems), TL1A specific antibody”, the fold response, DR3 reporter, TL1A + 2.5 microg/ml MAb7441 with TL1A (R&D Systems) [4] is 3.7 fold; in the experiment with TL1A (R&D Systems) [5] it was 2.3 fold and 2 fold and 1.8 fold.
